Data published in article PMC9166773, “Latrophilin-2 is a novel receptor of LRG1 that rescues vascular and neurological abnormalities and restores diabetic erectile function” (Experimental & Molecular Medicine, 2022).

T1: LPHN2 Lec-Olf domains (F26-P394) (UniProt O95490 26-394)
T1 construct: LPHN2 (ADGRL2) lectin and olfactomedin-like domains, residues F26-P394; Both Fc-tagged and tag-free forms were made; source: Expi293F, purified (protein A resin; tag-free form by on-resin thrombin digestion; Superdex 200)
T1 sequence (looked up): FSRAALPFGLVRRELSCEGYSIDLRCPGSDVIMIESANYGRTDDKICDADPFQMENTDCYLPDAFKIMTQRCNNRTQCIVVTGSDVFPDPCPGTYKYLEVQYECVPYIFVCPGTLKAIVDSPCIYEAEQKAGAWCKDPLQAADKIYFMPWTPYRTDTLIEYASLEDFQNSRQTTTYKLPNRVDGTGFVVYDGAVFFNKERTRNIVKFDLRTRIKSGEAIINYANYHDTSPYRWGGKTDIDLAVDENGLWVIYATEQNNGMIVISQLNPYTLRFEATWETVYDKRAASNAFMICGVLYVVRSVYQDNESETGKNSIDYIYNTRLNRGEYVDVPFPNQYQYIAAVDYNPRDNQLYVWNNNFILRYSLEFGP

B1: Leucine-rich alpha-2-glycoprotein 1 (LRG1), recombinant tag-free human LRG1 (ligand, UniProt P02750 36-347, looked up)
chain: VTLSPKDCQVFRSDHGSSISCQPPAEIPGYLPADTVHLAVEFFNLTHLPANLLQGASKLQELHLSSNGLESLSPEFLRPVPQLRVLDLTRNALTGLPPGLFQASATLDTLVLKENQLEVLEVSWLHGLKALGHLDLSGNRLRKLPPGLLANFTLLRTLDLGENQLETLPPDLLRGPLQLERLHLEGNKLQVLGKDLLLPQPDLRYLFLNGNKLARVAAGAFQGLRQLDMLDLSNNSLASVPEGLWASLGQPNWDMRDGFDISGNPWICDQNLSDLYRWLQAQKDKMFSQNDTRCAGPEAVKGQTLLAVAKSQ
notes: human LRG1, residues V36-Q347; In the TriCEPS capture LRG1 was coupled to the TriCEPS reagent; Residues of the thrombin site may remain after cleavage; also called recombinant LRG1; soluble LRG1; not shown: Fc (human IgG), C-terminal, cleaved

How the values were obtained:
[1] = molecular target: B1; assay: solid-phase binding assay; LRG1 and recombinant extracellular domains of LPHN2 (and Lec/Olf of LPHN1, LPHN3); who was immobilised and conditions not told in the text shown; conditions: both partners purified
[2] = molecular target: T1, LPHN2 Lec-Olf domains (F26-P394); assay: as above; conditions: both partners purified

Binder | Kd [1] | Kd [2]
LPHN2 Olf domain (V135-P394) (domain or fragment, UniProt O95490 135-394, looked up, LPHN2 (ADGRL2) olfactomedin-like domain, residues V135-P394; Both Fc-tagged and tag-free forms were made; also called olfactomedin-like domain; source: Expi293F, purified (protein A resin; tag-free form by on-resin thrombin digestion; Superdex 200)) VCPGTLKAIVDSPCIYEAEQKAGAWCKDPLQAADKIYFMPWTPYRTDTLIEYASLEDFQNSRQTTTYKLPNRVDGTGFVVYDGAVFFNKERTRNIVKFDLRTRIKSGEAIINYANYHDTSPYRWGGKTDIDLAVDENGLWVIYATEQNNGMIVISQLNPYTLRFEATWETVYDKRAASNAFMICGVLYVVRSVYQDNESETGKNSIDYIYNTRLNRGEYVDVPFPNQYQYIAAVDYNPRDNQLYVWNNNFILRYSLEFGP | 920 nM | –
B1 | – | 890 nM
